Data reported in the DeepSol protein solubility set.

Assay: soluble on expression in E. coli; label from the status in PepcDB or PDB records

Sequence	soluble on expression in E. coli
MDIKVIREKLTLTTSITSESVAEYEHDVDECCRLLEHKLELEMEKKLQLSNRIDVVQSQVTELWDRVDKARRRESDISCRVTAWAQHLSEMMNEVKLKKAKMGTTMEISATLSAEIQESLDLLAEKRVIVQRMREEIDYRRHLHKQQLKDLKLDCDREEEKCEYWNDKSAEIEKVVEMLKEQRKSLGERVEEEKRMEQEQKKMLEELEMLLKKTGKKRQILDENANLVASFSSLTEESS	not soluble
MKIAFIGEAVSGFGGMETVISNVIHTFENSSPKINCEMFFFCRNDKMDKAWLKEIKYAQSFSNIKLSFLRRAKHVYNFSQWLKETSPDIVICIDVISCLYANKARKKSGKHFTIFSWPHFSLDHKKHAECITYADYHLAISSGIKEQIMARGISAQDISVVYNPVSIKTVIVPPPERDKPAVFLYVGRLKFEGQKRVKDLFDGLARTTGEWQLHIIGDGSDFEKCQAYSRELGIEQRVIWYGWQSAPWQVVQQKIKNVTALLLTSAFEGFPMTLLEAMSYGIPCISSDCMSGPRDMIKPGLNGELYTPGAIDDFVGHLNRVISGEVKYQHDIIPGTIERFYDVLYFKNFNNAIFSKLQK	not soluble
YKKGIKPDLESITLCREDYESSGGKEIFLSFEDTKNDLLIGYLRLRIPNNPFRKEITDKSALIRQVHVCGQQKELEGNSKELSWQHKGYGRLLIDEAEKIAKEEFEKDQMLINSGIGVREYYKKLRYKRVGPYMGKNLK	not soluble
MSEIVIRHAETRDYEAIRQIHAQPEVYCNTLQVPHPSDHMWQERLADRPGIKQLVACIDGDVVGHLTIDVQQRPRRSHVADFGICVDSRWKNRGVASALMREMIEMCDNWLRVDRIELTVFVDNAPAIKVYKKFGFEIEGTGKKYALRNGEYVDAYYMARVK	not soluble
MTDYPSIFEPLTVKRMTIKNRVIMPPMGTNLAGLNGEFLEEHMNYYEQRAKGGTGLITIENACVDFPYGTNGTTQLRIDNDQYIPGFYKLTERLHKHGTCVSIQINHAGASAYPARLNGLQPVSASDIPSKKGGTVPRPLTVEEIYEIVNKYGDAARRAQQAGFDAVEIHGGHSYLLCQFLSPLYNKRTDEFGGTPENRARIVKLILEKVRAEVGPFFPIVLRFSADEFTEGGNHLEDILELLDYCQEEADILNVSAAINDNLYLQIDQMNLEDGWRSYLAKAVKDKFNKPTITSGNIRSPKAAEKILSEGYADLLAMGRGLIAEPNWVNKVATGQEDMLRKCISCNIGCADHRISKSKPIRCTVNPDIIHEDKYKETKVTRPTNVVVIGGGTAGLEAACTAAEVGCNTTLIEANEQTGGLARAIANLPDKSRIADFPNYLANRAEKLTNLKVITGTKADTALIDTFNPDVVVNATGSKPLLPPIKGLLDVIDKEGSKVHSIFGLISNIDDFTEFSNKKVAVIGGGAVGLDVVEYFSERGSDVTIVEMMPLLGKDLDMITRLSMMDIIEKNHVDVQTETALTEVAADHFKVKHDGVDAEIPFDYGFVCLGMRPERPLMEELAAYGKEKQIEIVNIGDSAATRKILEGVREGRNILTTLEKIGSL	not soluble
MKGYSMAKCLTLNTHSWMEVNALKKLFDLAEHIFREKYDIICLQEVNQSISSPLAKSSPNYHPIEGTPALHQDNFALQLVHYLNLQGLHYHWTWAYNHIGYSKYHEGVAILSLKPLKPEDILVSAVDDETDYHTRRALVAETTLNDKVVTVVSLHFSWFEKGFAEEWKRLETTLLEVETPLLLMGDFNNPTGNQGYELVLNSPLALKDSHQIANHVFGDHTIMADIDGWEGNKKALKVDHIFTSEDLSISSSQVVFEGGEAPVVSDHYGLEITMDF	not soluble
MPIQRREFIAAIGTGALATTAGCAQSGEGSGQTEAETEAESGGGGQPGVAGETLTLTTTTSTYDTGLLDEIHPDFEDMYGVSVDAVAQGTGAALESARNGDSDIVMVHARGLEDDFMRNGYGINRRDLMFNDFVIVGPEDDPAGIQGMGSATEALTTIAESESQFVSRGDNSGTHTKELNLWEAAGTEPGGNWYQETGTGMGEALNIANQQGAYTLSDRGTYISQRSEIDLVILVQGPIEDGPEILANPYGIMAVNPGVHDNANYDLAMAYIGWITSPGTQDAISNYQVNGEQLFFPEAVSEDPNFQQYVPEGWSSDAGE	not soluble
SNAKIIGYARVSFNAQKDDLERQIQLIKSYAEENGWDIQILKDIGSGLNEKRKNYKKLLKMVMNRKVEKVIIAYPDRLTRFGFETLKEFFKSYGTEIVIINKKHKTPQEELVEDLITIVSHFAGKLYGMHSHKYKKLTKTVKEIVREEDAKEKE	soluble
MEKDNICYKTYVEILERELVPAMGCTEPIALAYCSAKARSVLGVLPDKVLVEVSGNIVKNVKSVIVPNSGGRRGIEAAAAVGILAGREDLELEVLSKVTDEDIAGLGAYMEKVEITVAPLDTPYLLDMAVTAKKDGSRARVRIAQEHTNIIEIEKDGKILFEKQAGEEEDCDAPDYSLLTIEKIYDFADTADLEDVKAVLDRQIAYNTAIAEEGLRGDYGANIGRVLMEEYGDRIENRAKAMAAAGSDARMNGCDLPVIINSGSGNQGMTASLPVIEYAKELKCSREKLYRALLLSNLVTLHQKTGIGRLSAYCGAVSAGAGAGAGIAYLEGGDLKVVAHTLVNALAITSGIVCDGAKASCAAKIAVAVDTGILGYKMYKKGQQFYGGDGLVAKGVENTIRNIGRLGKEGMKETDKEIIRIMTE	not soluble
MFKKVLGLRHWNNNVVKIPPPAAESGANASDVVVDTPEPYERILCQKILMGISTIDIIRNAIIKSCEQLNIEKERINELNEQNDKARSSLKSLVEFITEIGTTSSDIGCRMGDLNTSLTQINACIKEIQKIANQTNLIAINSAIEAARVGDAGRGFSVISKEVKNLSEDVKHSSKSVSTLTSVIKDNTARVSEVLDNQQPVIDNITTNINQIVESIGIVIDKSLSMKSVMQYISTVQFLNIVKVDHVIWKMEVYKLLLNKDINSKITMHDQCRLGKWYYGFEGQQFSNYYSFRSLEAPHKEVHTAGHSALNYFAAGDMNAMSQELDRMERSSNEVVNQLEMLAVDLLKETTL	not soluble
GPGSMPSKEASSRNLPISGRDTNGKTYRSTDEMWKAELTGDLYDPEKGWYGKALEYWRTVPATVSGVLGGMDHVHDVDIEGSRNFIASLPGHGTSRALDCGAGIGRITKNLLTKLYATTDLLEPVKHMLEEAKRELAGMPVGKFILASMETATLPPNTYDLIVIQWTAIYLTDADFVKFFKHCQQALTPNGYIFFKENCSTGDRFLVDKEDSSLTRSDIHYKRLFNESGVRVVKEAFQEEWPTDLFPLKMYALK	soluble
DIELTQSPATLSVTPGNSVSISCRASQSLVNEDGNTYLFWYQQKSHESPRLLIKYASQSISGIPSRFSGSGSGTDFTLSINSVETEDLAVYFCQQITDWPFTFGGGTKLEIKRADAAPTVSIFPPSSEQLTSGGASVVCFLNNFYPKDINVKWKIDGSERQNGVLNSWTDQDSKDSTYSMSSTLTLTKDEYERHNSYTCEATHKTSTSPIVKSFNRNEC	soluble
MSHSLRYFVTAVSRPGFGEPRYMEVGYVDNTEFVRFDSDAENPRYEPRARWIEQEGPEYWERETRRAKGNEQSFRVDLRTALRYYNQSAGGSHTLQWMAGCDVESDGRLLRGYWQFAYDGCDYIALNEDLKTWTAADMAAQITRRKWEQAGAAERDRAYLEGECVEWLRRYLKNGNATLLRTDPPKAHVTHHRRPEGDVTLRCWALGFYPADITLTWQLNGEELTQEMELVETRPAGDGTFQKWASVVVPLGKEQKYTCHVEHEGLPEPLTLRWGKE	soluble
MQYHYQWLTPFDAKRTTVVCLHGFTGTLATFAAVFPSQTPYNVLGIDLPGHGATASLVAPERYTMKQVCHDIAELTESLNLPCFCLLGYSMGARTALGFALHYPQKVQHLLLESGSPGLATAAERQARICQDHRLAERLLEEPLVDFIDFWQELPLFQTQKALSVAQQMAIRQERLSQSAFGLVSSLWYMGTGAQESYWERLAELQPIPTDLLVGGEDQKFIGIAKKMQARQPLLRLTIFPEAGHCIHLEQPTIFYEKVTALLEGAI	not soluble
MGSDKIHHHHHHMSSGITPPLIAGNLALDFINTQFGVGADRYECLNDDSSVVEWLHQAGVLNDTLAAPPAGLVERARELREDMQTLIVSAREGRGADPAIVNQVLERGHPIERLEWVPAYAAFQKQTYRRDLTSESLLQPVAQALVELLTKEDLHLVKECQAPDCVLLFHDQTKSHRRRWCSMASCGNRMKAAAHRARKSAT	not soluble
MDMYSMKISEGVERIDGVTANSYLLTLDGKNILIDTGTAGGGKKIIDYFNKNGTKPDYVIVTHHHADHVGGLKEISERFNPEIYVPDLEMKIIRGEEDPPKPRSFFGRMITGMLKFEPVKDVKPVSKASIPGIEEMATPGHTIGSTSYIVEDLHILFSGDAAVESGGELKINKSFSYEINSAERSLEIIKGMKGYLVLPGHGDKVQLLEHHHHHH	soluble
SGGGGGILEKLGDICFSLRYVPTAGKLTVVILEAKNLKKMDVGGLSDPYVKIHLMQNGKRLKKKKTTIKKNTLNPYYNESFSFEVPFEQIQKVQVVVTVLDYDKIGKNDAIGKVFVGYNSTGAELRHWSDMLANPRRPIAQWHTLQVEEEVDAMLAVKK	soluble
MMRVAIFTDTFTPQVNGVAKTLERLTQYFQKEQIAYSVFAPQHTAEDNFVANVNKMRSIPLTILYPECRFSFPTPRIKRELLSFKPDIIHIATPFNMGLCGLYYAKKLNIPVVGSYHTDFDAYLRYYKIEFLSNMLWNYLKWFHSHMQKNFVPSFETLHQLKNKGFQTLSIWGRGVDCTLFHPAYNTDLFRKKYNITAKYVLSYVGRIAPEKDIDTLQHLIVKTAHTRNDIHWLIAGDGPLATSLREAVPKTNITFTGYLQGGDLAEAYACSNIMVFPSATETFGNVVLESLACGTPVIGANSGGVKNIITDGKTGVLCPPKNEDAFLSSIYFLLQNEEKLEQMGIESSSFAKSKSWDEVFRGLLNQYEEVLQHNASELLALEHHHHHH	soluble
MGSDKIHHHHHHMPTITAKIQIHVSDNQAESLKITTNAYRKACNWLSKHIFETKNLNQVNLNNLYYSDLRNQFRLKSQMAQSVMKTVIARYKSAKSNGHEWSLIDFKLAEYDLVWNRDYSLTKNQFSVNTLEGRLKLNYERKAMKKYFNSTWKFGTAKLVHKYKKWFLHIPMTKEYQTLDFADVNNIVGVDLGINFLATTYDSQSKTTFYNGNIVKHKRGKFKATRKQLQTRQTPSSRKKIKQIGSRENRYVTDVNHQITKALVEAYPRGTMFVLEDLTGVRSATEKVRVKNRYVSVSWAFYQFRQMLEYKAELNGQKVIVVDPKYTSQTCPKCGNIEKANRNKKLHTFKCKNCQYQSNDDRISAMNLHRKGIKHISVVTTGV	not soluble
VRIPALERGPGLKDLAIFSRQLATMLGAGLTLLQALAILERQTENRKFREILKQVRTDVEGGMAFSEALSKHKIFSRLYVNLVRAGETSGGLDLILDRLASFLEKELELRGKIRSA	soluble
MAMNNILGLFAQSPLKPLQKHSVKVTECSELLEPFFEATFKQDWDEAIKVREQIIDLERRADALKREIRLKLPRGLFLPVERTDLLELVTQLDKLANYSRDISGRIIGRQLVIPEAMQATFRKFLSRSLDSTRQVRKVLAELDKLLETGFRGRELKFVNNMILELDQIEDDTDQIQIVLRRTLRGLEQEFNPIDVIFLYKCIERVSILADQAQRVGSRIELMLAKALEHHHHHH	soluble
